Experimental data published in patent publication US20260001928A1 (CORTERIA PHARMACEUTICALS, priority 2022, published 2026).
*1 amine or outer side, *2 acyl side, *3 side chain or, on linkers, in order; H or OH if unused. Where no end group is shown, it is not given here. Side-chain parts run from the residue outwards. [ ]: non-standard residue; d: D form. The star is where a group is joined. C18 diacid = O=C(O)CCCCCCCCCCCCCCCCC(=O)*; C16 diacid = O=C(O)CCCCCCCCCCCCCCC(=O)*; γGlu = O=C(O)[C@H](CCC(=O)[*:2])N[*:1]; αMeL = CC(C)C[C@](C)(N)C(=O)O; AEEA = NCCOCCOCC(=O)O; Aib = CC(C)(N)C(=O)O

T1: CRF1R receptor (UniProt P34998 24-415, limits assumed)
T1 sequence (looked up): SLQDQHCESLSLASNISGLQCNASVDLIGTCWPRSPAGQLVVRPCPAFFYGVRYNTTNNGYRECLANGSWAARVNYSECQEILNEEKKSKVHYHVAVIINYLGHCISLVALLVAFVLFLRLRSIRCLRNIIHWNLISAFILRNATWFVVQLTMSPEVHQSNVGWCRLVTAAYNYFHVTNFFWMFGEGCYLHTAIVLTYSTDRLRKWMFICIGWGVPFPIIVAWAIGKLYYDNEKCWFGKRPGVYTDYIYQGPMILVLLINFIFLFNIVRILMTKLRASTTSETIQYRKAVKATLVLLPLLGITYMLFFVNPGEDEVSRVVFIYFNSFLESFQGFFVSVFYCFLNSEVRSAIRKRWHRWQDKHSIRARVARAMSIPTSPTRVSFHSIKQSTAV

B1: SEQ ID NO 39 (peptide)
peptide: Ac-IVLSLDVPIKLK([γGlu-C16 diacid])KILLEQEKQKKQREQAETN[Aib]QILAQV-NH2
SMILES: CC[C@H](C)[C@H](NC(C)=O)C(=O)N[C@H](C(=O)N[C@@H](CC(C)C)C(=O)N[C@@H](CO)C(=O)N[C@@H](CC(C)C)C(=O)N[C@@H](CC(=O)O)C(=O)N[C@H](C(=O)N1CCC[C@H]1C(=O)N[C@H](C(=O)N[C@@H](CCCCN)C(=O)N[C@@H](CC(C)C)C(=O)N[C@@H](CCCCNC(=O)CC[C@H](NC(=O)CCCCCCCCCCCCCCC(=O)O)C(=O)O)C(=O)N[C@@H](CCCCN)C(=O)N[C@H](C(=O)N[C@@H](CC(C)C)C(=O)N[C@@H](CC(C)C)C(=O)N[C@@H](CCC(=O)O)C(=O)N[C@@H](CCC(N)=O)C(=O)N[C@@H](CCC(=O)O)C(=O)N[C@@H](CCCCN)C(=O)N[C@@H](CCC(N)=O)C(=O)N[C@@H](CCCCN)C(=O)N[C@@H](CCCCN)C(=O)N[C@@H](CCC(N)=O)C(=O)N[C@@H](CCCNC(=N)N)C(=O)N[C@@H](CCC(=O)O)C(=O)N[C@@H](CCC(N)=O)C(=O)N[C@@H](C)C(=O)N[C@@H](CCC(=O)O)C(=O)N[C@H](C(=O)N[C@@H](CC(N)=O)C(=O)NC(C)(C)C(=O)N[C@@H](CCC(N)=O)C(=O)N[C@H](C(=O)N[C@@H](CC(C)C)C(=O)N[C@@H](C)C(=O)N[C@@H](CCC(N)=O)C(=O)N[C@H](C(N)=O)C(C)C)[C@@H](C)CC)[C@@H](C)O)[C@@H](C)CC)[C@@H](C)CC)C(C)C)C(C)C
B2: SEQ ID NO 49 (peptide)
peptide: Ac-IVLSLDVPIK[αMeL]K([γGlu-C16 diacid])KILLEQEKQKKQREQAETNVQILAQV-NH2
B3: SEQ ID NO 102 (peptide)
peptide: Ac-IVLSLDVPIKLK([AEEA-AEEA-γGlu-C18 diacid])KILLEQEKQKKQREQAETNVQILAQV-NH2
SMILES: CC[C@H](C)[C@H](NC(C)=O)C(=O)N[C@H](C(=O)N[C@@H](CC(C)C)C(=O)N[C@@H](CO)C(=O)N[C@@H](CC(C)C)C(=O)N[C@@H](CC(=O)O)C(=O)N[C@H](C(=O)N1CCC[C@H]1C(=O)N[C@H](C(=O)N[C@@H](CCCCN)C(=O)N[C@@H](CC(C)C)C(=O)N[C@@H](CCCCNC(=O)COCCOCCNC(=O)COCCOCCNC(=O)CC[C@H](NC(=O)CCCCCCCCCCCCCCCCC(=O)O)C(=O)O)C(=O)N[C@@H](CCCCN)C(=O)N[C@H](C(=O)N[C@@H](CC(C)C)C(=O)N[C@@H](CC(C)C)C(=O)N[C@@H](CCC(=O)O)C(=O)N[C@@H](CCC(N)=O)C(=O)N[C@@H](CCC(=O)O)C(=O)N[C@@H](CCCCN)C(=O)N[C@@H](CCC(N)=O)C(=O)N[C@@H](CCCCN)C(=O)N[C@@H](CCCCN)C(=O)N[C@@H](CCC(N)=O)C(=O)N[C@@H](CCCNC(=N)N)C(=O)N[C@@H](CCC(=O)O)C(=O)N[C@@H](CCC(N)=O)C(=O)N[C@@H](C)C(=O)N[C@@H](CCC(=O)O)C(=O)N[C@H](C(=O)N[C@@H](CC(N)=O)C(=O)N[C@H](C(=O)N[C@@H](CCC(N)=O)C(=O)N[C@H](C(=O)N[C@@H](CC(C)C)C(=O)N[C@@H](C)C(=O)N[C@@H](CCC(N)=O)C(=O)N[C@H](C(N)=O)C(C)C)[C@@H](C)CC)C(C)C)[C@@H](C)O)[C@@H](C)CC)[C@@H](C)CC)C(C)C)C(C)C
B4: SEQ ID NO 20 (peptide)
peptide: Ac-IVLSLDVPIK[αMeL]K([γGlu-C16 diacid])Q[Aib]LLKQERQKKQREQAEKN[Aib]QILEQV-NH2
SMILES: CC[C@H](C)[C@H](NC(C)=O)C(=O)N[C@H](C(=O)N[C@@H](CC(C)C)C(=O)N[C@@H](CO)C(=O)N[C@@H](CC(C)C)C(=O)N[C@@H](CC(=O)O)C(=O)N[C@H](C(=O)N1CCC[C@H]1C(=O)N[C@H](C(=O)N[C@@H](CCCCN)C(=O)N[C@@](C)(CC(C)C)C(=O)N[C@@H](CCCCNC(=O)CC[C@H](NC(=O)CCCCCCCCCCCCCCC(=O)O)C(=O)O)C(=O)N[C@@H](CCC(N)=O)C(=O)NC(C)(C)C(=O)N[C@@H](CC(C)C)C(=O)N[C@@H](CC(C)C)C(=O)N[C@@H](CCCCN)C(=O)N[C@@H](CCC(N)=O)C(=O)N[C@@H](CCC(=O)O)C(=O)N[C@@H](CCCNC(=N)N)C(=O)N[C@@H](CCC(N)=O)C(=O)N[C@@H](CCCCN)C(=O)N[C@@H](CCCCN)C(=O)N[C@@H](CCC(N)=O)C(=O)N[C@@H](CCCNC(=N)N)C(=O)N[C@@H](CCC(=O)O)C(=O)N[C@@H](CCC(N)=O)C(=O)N[C@@H](C)C(=O)N[C@@H](CCC(=O)O)C(=O)N[C@@H](CCCCN)C(=O)N[C@@H](CC(N)=O)C(=O)NC(C)(C)C(=O)N[C@@H](CCC(N)=O)C(=O)N[C@H](C(=O)N[C@@H](CC(C)C)C(=O)N[C@@H](CCC(=O)O)C(=O)N[C@@H](CCC(N)=O)C(=O)N[C@H](C(N)=O)C(C)C)[C@@H](C)CC)[C@@H](C)CC)C(C)C)C(C)C
B5: SEQ ID NO 43 (peptide)
peptide: Ac-IVLSLDVPIK[αMeL]K([γGlu-C16 diacid])KILLEQEKQKKQREQAETN[Aib]QILAQV-NH2
SMILES: CC[C@H](C)[C@H](NC(C)=O)C(=O)N[C@H](C(=O)N[C@@H](CC(C)C)C(=O)N[C@@H](CO)C(=O)N[C@@H](CC(C)C)C(=O)N[C@@H](CC(=O)O)C(=O)N[C@H](C(=O)N1CCC[C@H]1C(=O)N[C@H](C(=O)N[C@@H](CCCCN)C(=O)N[C@@](C)(CC(C)C)C(=O)N[C@@H](CCCCNC(=O)CC[C@H](NC(=O)CCCCCCCCCCCCCCC(=O)O)C(=O)O)C(=O)N[C@@H](CCCCN)C(=O)N[C@H](C(=O)N[C@@H](CC(C)C)C(=O)N[C@@H](CC(C)C)C(=O)N[C@@H](CCC(=O)O)C(=O)N[C@@H](CCC(N)=O)C(=O)N[C@@H](CCC(=O)O)C(=O)N[C@@H](CCCCN)C(=O)N[C@@H](CCC(N)=O)C(=O)N[C@@H](CCCCN)C(=O)N[C@@H](CCCCN)C(=O)N[C@@H](CCC(N)=O)C(=O)N[C@@H](CCCNC(=N)N)C(=O)N[C@@H](CCC(=O)O)C(=O)N[C@@H](CCC(N)=O)C(=O)N[C@@H](C)C(=O)N[C@@H](CCC(=O)O)C(=O)N[C@H](C(=O)N[C@@H](CC(N)=O)C(=O)NC(C)(C)C(=O)N[C@@H](CCC(N)=O)C(=O)N[C@H](C(=O)N[C@@H](CC(C)C)C(=O)N[C@@H](C)C(=O)N[C@@H](CCC(N)=O)C(=O)N[C@H](C(N)=O)C(C)C)[C@@H](C)CC)[C@@H](C)O)[C@@H](C)CC)[C@@H](C)CC)C(C)C)C(C)C
B6: SEQ ID NO 19 (peptide)
peptide: Ac-IVLSLDVPIK[αMeL]K([γGlu-C16 diacid])QILLKQERQKKQREQAEKN[Aib]QILEQV-NH2
SMILES: CC[C@H](C)[C@H](NC(C)=O)C(=O)N[C@H](C(=O)N[C@@H](CC(C)C)C(=O)N[C@@H](CO)C(=O)N[C@@H](CC(C)C)C(=O)N[C@@H](CC(=O)O)C(=O)N[C@H](C(=O)N1CCC[C@H]1C(=O)N[C@H](C(=O)N[C@@H](CCCCN)C(=O)N[C@@](C)(CC(C)C)C(=O)N[C@@H](CCCCNC(=O)CC[C@H](NC(=O)CCCCCCCCCCCCCCC(=O)O)C(=O)O)C(=O)N[C@@H](CCC(N)=O)C(=O)N[C@H](C(=O)N[C@@H](CC(C)C)C(=O)N[C@@H](CC(C)C)C(=O)N[C@@H](CCCCN)C(=O)N[C@@H](CCC(N)=O)C(=O)N[C@@H](CCC(=O)O)C(=O)N[C@@H](CCCNC(=N)N)C(=O)N[C@@H](CCC(N)=O)C(=O)N[C@@H](CCCCN)C(=O)N[C@@H](CCCCN)C(=O)N[C@@H](CCC(N)=O)C(=O)N[C@@H](CCCNC(=N)N)C(=O)N[C@@H](CCC(=O)O)C(=O)N[C@@H](CCC(N)=O)C(=O)N[C@@H](C)C(=O)N[C@@H](CCC(=O)O)C(=O)N[C@@H](CCCCN)C(=O)N[C@@H](CC(N)=O)C(=O)NC(C)(C)C(=O)N[C@@H](CCC(N)=O)C(=O)N[C@H](C(=O)N[C@@H](CC(C)C)C(=O)N[C@@H](CCC(=O)O)C(=O)N[C@@H](CCC(N)=O)C(=O)N[C@H](C(N)=O)C(C)C)[C@@H](C)CC)[C@@H](C)CC)[C@@H](C)CC)C(C)C)C(C)C
B7: SEQ ID NO 38 (peptide)
peptide: IVLSLDVPIK[αMeL]K([γGlu-C16 diacid])KILLEQEKQKKQREQAETN[Aib]QILAQV-NH2
modifications: N-terminus assumed
SMILES: CC[C@H](C)[C@H](N)C(=O)N[C@H](C(=O)N[C@@H](CC(C)C)C(=O)N[C@@H](CO)C(=O)N[C@@H](CC(C)C)C(=O)N[C@@H](CC(=O)O)C(=O)N[C@H](C(=O)N1CCC[C@H]1C(=O)N[C@H](C(=O)N[C@@H](CCCCN)C(=O)N[C@@](C)(CC(C)C)C(=O)N[C@@H](CCCCNC(=O)CC[C@H](NC(=O)CCCCCCCCCCCCCCC(=O)O)C(=O)O)C(=O)N[C@@H](CCCCN)C(=O)N[C@H](C(=O)N[C@@H](CC(C)C)C(=O)N[C@@H](CC(C)C)C(=O)N[C@@H](CCC(=O)O)C(=O)N[C@@H](CCC(N)=O)C(=O)N[C@@H](CCC(=O)O)C(=O)N[C@@H](CCCCN)C(=O)N[C@@H](CCC(N)=O)C(=O)N[C@@H](CCCCN)C(=O)N[C@@H](CCCCN)C(=O)N[C@@H](CCC(N)=O)C(=O)N[C@@H](CCCNC(=N)N)C(=O)N[C@@H](CCC(=O)O)C(=O)N[C@@H](CCC(N)=O)C(=O)N[C@@H](C)C(=O)N[C@@H](CCC(=O)O)C(=O)N[C@H](C(=O)N[C@@H](CC(N)=O)C(=O)NC(C)(C)C(=O)N[C@@H](CCC(N)=O)C(=O)N[C@H](C(=O)N[C@@H](CC(C)C)C(=O)N[C@@H](C)C(=O)N[C@@H](CCC(N)=O)C(=O)N[C@H](C(N)=O)C(C)C)[C@@H](C)CC)[C@@H](C)O)[C@@H](C)CC)[C@@H](C)CC)C(C)C)C(C)C

molecular target: T1, CRF1R receptor; test: cell-based or functional assay

| Emax (% I) [%] | Binder |
| --- | --- |
| 2 | B1 |
| -3 | B2 |
| -5 | B3 |
| 3 | B4 |
| 1 | B5 |
| 6 | B6 |
| 6 | B7 |

molecular target: human corticotropin-releasing factor 2a (CRF2a receptor) (human), Q13324; test: cell-based or functional assay
Sequence (Q13324 20-411): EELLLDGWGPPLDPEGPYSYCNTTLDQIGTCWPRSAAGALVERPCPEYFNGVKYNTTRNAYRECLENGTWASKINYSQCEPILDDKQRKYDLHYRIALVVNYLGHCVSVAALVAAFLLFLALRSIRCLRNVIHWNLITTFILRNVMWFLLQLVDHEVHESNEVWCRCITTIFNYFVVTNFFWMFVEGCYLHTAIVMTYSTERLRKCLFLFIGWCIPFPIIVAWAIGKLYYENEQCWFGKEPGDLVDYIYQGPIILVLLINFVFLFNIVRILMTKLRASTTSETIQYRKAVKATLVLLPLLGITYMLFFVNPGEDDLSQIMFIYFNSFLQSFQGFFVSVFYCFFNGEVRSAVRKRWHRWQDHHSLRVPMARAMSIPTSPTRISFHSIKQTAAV

| EC50 [nM] (cAMP) | Binder |
| --- | --- |
| 0.53 | B1 |
| 0.92 | B2 |
| 17.6 | B3 |
| 1.09 | B4 |
| 0.3 | B5 |
| 0.28 | B6 |
| 0.49 | B7 |
